According to patent US12173330B2, “Method for producing hydroxy-L-pipecolic acid” (API CORPORATION, priority 2015, dated 2024):

What was measured:
[1] = Reactivity comparison of L-pipecolic acid 5-hydroxylases, substrate L-proline (Example 4); details: for Relative activity, Substrate: L-proline (hydroxy-L-proline-producing activity, 100 = hydroxy-L-pipecolic acid-producing activity): 10 mmol/L substrate, 30° C., 30 minutes; for hydroxy-L-proline detected from the reaction solution: Example 4, 10 mmol/L L-proline, in words
Description: (§1) The detection of the products was based on the absorbance at a wavelength of 340 nm.
(§2) The activity values were evaluated by the amount of a product per gram of total protein (U/g-protein).

[2] = Reactivity comparison of L-pipecolic acid 5-hydroxylases, substrate L-pipecolic acid (Example 4); details: 10 mmol/L substrate, 30° C., 30 minutes; hydroxy-L-pipecolic acid-producing activity set to 100
Description: as §1, §2

[3] = Catalytic efficiency (kcat/Km) of L-pipecolic acid hydroxylases with L-proline (Example 3); format: biochemical; details: for hydroxy-L-proline detected from the reaction solution: L-proline as substrate, Example 3, in words; for Activity, Substrate: L-proline (cell spanning Km to kcat/Km): in words
Description: Each of the obtained recombinant E. coli strains in a volume of 0.6 mL was recovered by centrifugation and was suspended in 0.5 mL of 50 mmol/L MES (2-morpholinoethanesulfonic acid) buffer at pH 6. The container containing the suspension was placed in ice-water bath to perform sonication and then spun at 12,000 rpm. The obtained supernatant was used as an enzyme solution in Example 3.
Subsequently, 0.05 mL of 1 mol/L hydrochloric acid was added to stop the reaction.
The reaction using L-proline as a substrate was carried out under the same conditions as in the above reaction using L-pipecolic acid.
Then, each reaction solution was treated using 1-fluoro-2,4-dinitrophenyl-5-L-alaninamide (FDAA) (manufactured by Tokyo Chemical Industry Co., Ltd.) according to a method as described below, to obtain a FDAA-derivative of a hydroxy-L-pipecolic acid or hydroxy-L-proline included in each reaction solution.
To the reaction solution after stopping the reaction, 0.05 mL of 1 mol/L sodium hydroxide was added for neutralization. After centrifuging the solution at 12,000 rpm, 15 μL of 0.5 mol/L borate buffer (pH 9) was added to 15 μL of the obtained supernatant, followed by further addition of 30 μL of 20 mmol/L FDAA solution in acetone and incubation at 40° C. for one hour. Subsequently, 10 μL of 1 mol/L hydrochloric acid was added to stop the derivatization reaction. The resulting solution was diluted by adding 80 μL of methanol, and then centrifuged at 12,000 rpm. The obtained supernatant was used as a FDAA derivative solution.
The amount of produced hydroxy-L-pipecolic acid or hydroxy-L-proline was analyzed with UPLC-MS (manufactured by Waters Co.).
An aliquot containing 5 μg of total protein was taken from each enzyme solution obtained in Example 2, loaded on each lane, and then electrophoresed on polyacrylamide gel. The obtained electrophoretogram was analyzed using the image analysis software Image Lab3.0 (manufactured by Bio-Rad Laboratories, Inc.) to determine the content of each hydroxylase. A carbonic anhydrase (manufactured by Sigma-Aldrich Co. LLC) was used as a quantification reference. The content of a hydroxylase of interest was calculated from the signal intensity of the enzyme of interest, based on the signal intensities of bands corresponding to 200 ng, 400 ng and 600 ng of the quantification reference provided for the electrophoresis.
The catalytic efficiency of each enzyme was calculated based on the Michaelis-Menten kinetic equation.
It is known that, in FIG. 1, the reciprocal of each intercept with the x-axis, multiplied with −1, represents a km value (mmol/L) and the reciprocal of each intercept with the y-axis represents a Vmax value (U/mg), the maximum rate of reaction.
The catalytic ability per molecule of the enzyme (kcat) can be calculated from the Vmax and the molecular weight of the enzyme. Table 5 indicates the result of the calculation of catalytic efficiency (kcat/km), which is an index representing the catalytic ability of an enzyme, based on the obtained kcat and km values.

[4] = Production of hydroxy-L-pipecolic acids by culture of recombinant E. coli expressing the hydroxylase (Example 5); format: cell-based, E. coli BL21 (DE3); details: for Accumulation of (4S)-hydroxy-L-proline: 120 hours; for Accumulation amount of (4S)-hydroxy-L-proline / Accumulation amount of (5S)-Hydroxy-L-pipecolic acid / Accumulation amount of L-pipecolic acid / Accumulation amount of (4R)-hydroxy-L-proline / Accumulation amount of (4S)-hydroxy-L-pipecolic acid: 20 mmol/L L-pipecolic acid in medium, 30° C.; for Accumulation of (4R)-hydroxy-L-proline: 64 hours; for Conversion of the substrate to (4S)-hydroxy-L-pipecolic acid: incubation for 64 hours

Row | Molecule | Relative activity, Substrate: L-proline (hydroxy-L-proline-producing activity, 100 = hydroxy-L-pipecolic acid-producing activity) [1] [%] | hydroxy-L-proline detected from the reaction solution [1] | Relative activity, Substrate: L-pipecolic acid [2] [%] | hydroxy-L-proline detected from the reaction solution [3] | Accumulation of (4S)-hydroxy-L-proline ([4]; in words) | Accumulation amount of (4S)-hydroxy-L-proline ([4]; after 120 hours) [mmol/L] | Accumulation amount of (5S)-Hydroxy-L-pipecolic acid ([4]; after 120 hours) [mmol/L] | Accumulation amount of L-pipecolic acid ([4]; after 120 hours) [mmol/L] | Conversion of the substrate to (5S)-hydroxy-L-pipecolic acid ([4]; incubation for 120 hours, in words) | Activity, Substrate: L-proline (cell spanning Km to kcat/Km) [3] | Accumulation of (4R)-hydroxy-L-proline ([4]; in words) | Accumulation amount of (4R)-hydroxy-L-proline ([4]; after 64 hours) [mmol/L] | Accumulation amount of (4S)-hydroxy-L-pipecolic acid ([4]; after 64 hours) [mmol/L] | Accumulation amount of L-pipecolic acid ([4]; after 64 hours) [mmol/L] | Conversion of the substrate to (4S)-hydroxy-L-pipecolic acid ([4]; in words)
1 | XdPH: L-proline cis-4-hydroxylase from Xenorhabdus doucetiae FRM16, GenBank CDG16639, SEQ ID NO: 8 (protein, listed as Xenorhabdus doucetiae) MMSAKLLASIELNQEQIEHDLNIVGSEILDVAYSEYACGNWGTITLWNHSGDAGDQTSREYVGQARPTELGQQLDCINQLIRNNFNISLIKSVRIFRSYNGGAIYPHIDYLEFNQGFKRVHLVLKSDRSCLNSEENTVYHMLPGEVWFVDGHSAHSAMSLSRVGKYSLVLDFDSGAKFEDLYSESHTLCVDNLEPDIIHDRQPLPTSLRDSLAHIAEHADEFNIQSILFLATRFHFSYAVSIREYFQLLDECFSRNPYKSVRERYEALKDILVRSGYTSHNVNHFNSLSGVTIG | 37 | small amount of hydroxy-L-proline was detected | 100 | small amount of hydroxy-L-proline was detected | Accumulation of (4S)-hydroxy-L-proline was confirmed | 0.3 | 15.2 | 10.6 | – | – | – | – | – | – | –
2 | SruPH: L-pipecolic acid cis-5-hydroxylase from Segniliparus rugosus ATCC BAA-974, GenBank EFV12517, SEQ ID NO: 4 (protein, listed as Segniliparus rugosus) MKSYSLGKFEDRSIDSLIEEASGLPDSAYSSAYQEYSIGLWDTATLWNERGNESGEVSEHAAAAAPTAIGRSTPRLNEFVRAKFNVDVLRAVRLFRARQGAIIIPHRDYLEHSNGFCRIHLPLVTTPGARNSENNEVYRMLPGELWFLDSNEVHSGGVLDSGTRIHLVLDFTHEHNENPAAVLKNADRLRPIARDPRISRSKLDHEALESLIRGGRVVTLAMWPALVQMLARIHLTSDAHPAELYDWLDDLADRSGNDELVAEARRMRRYFLTDGISRTPSFERFWRELDAARKGELVS | 59 | small amount of hydroxy-L-proline was detected | 100 | small amount of hydroxy-L-proline was detected | Accumulation of (4S)-hydroxy-L-proline was confirmed | 1.8 | 22.5 | 0.1 | almost the entire amount of the substrate was allowed to convert to (5S)-hydroxy-L-pipecolic acid | – | – | – | – | – | –
3 | KjPH: amino acid hydroxylase from Kordia jejudonensis, GenBank WP_046758372, SEQ ID NO: 18 (protein, listed as Kordia jejudonensis) MESKIIGKVNFEEHLLDKELKLIDTFEFNDSYSEYASGIWKTCMLWNRSGQKDDHLSIEHDTYVKPTEYGKQLAYVNEIIANTFKKEHIKTVRLFMCINGLIIPHKDYLEFKKGFTRIHIPLKINEHALTSEEDVVYNMQKGEIWFIEGRKIHSAANFSKVKRINLVIDFAPDIPFEELFLNSENYQPNLIPKISQRTQLKEEELGYIKGLSKIINEMNFDDILSILSKIHFYRNVSSELVFGWLDEIATASNNYNIQRKAQEVTDLLIRKGPINN | – | – | – | small amount of hydroxy-L-proline was detected | – | – | – | – | – | – | – | – | – | – | –
4 | SmPH: L-proline cis-4-hydroxylase from Sinorhizobium meliloti 1021, GenBank CAC47686, SEQ ID NO: 10 (protein, listed as Sinorhizobium meliloti) MSTHFLGKVKFDEARLAEDLSTLEVAEFSSAYSDFACGKWEACVLRNRTGMQEEDIVVSHNAPALATPLSKSLPYLNELVETHFDCSAVRYTRIVRVSENACIIPHSDYLELDETFTRLHLVLDTNSGCANTEEDKIFHMGLGEIWFLDAMLPHSAACFSKTPRLHLMIDFEATAFPESFLRNVEQPVTTRDMVDPRKELTDEVIEGILGFSIIISEANYREIVSILAKLHFFYKADCRSMYDWLKEICKRRGDPALIEKTASLERFFLGHRERGEVMTY | 46 | small amount of hydroxy-L-proline was detected | 100 | small amount of hydroxy-L-proline was detected | Accumulation of (4S)-hydroxy-L-proline was confirmed | 0.2 | 9.4 | 5.6 | – | – | – | – | – | – | –
5 | PcPH: L-pipecolic acid trans-4-hydroxylase from Penicillium chrysogenum Wisconsin 54-1255, GenBank XP_002558179, SEQ ID NO: 14 (protein, listed as Penicillium chrysogenum) MSQALDLSLLKGSPEERDEVSAALLDTLKTRGVAKLKNHGLPEDLIAEMFDYTRRFFSLSLEDKMTAKHPPEANPNRGYSYVGQESVSSISGYEKGLPQGKTIRDIKETLDMGSPHDSLVDNIWVAEEKLPGFRKFMEDFYESCFKVELEILDALAQALEISAPDLRLLHNKAENEFRLLHYPAVPASALEDGTATRIAEHTDFGTITMLFQDSTGGLQVEDQTNLGTFHDVVSGGKSEIILNIGDSLQRLTNDTFMAACHRVTYPPTVKVGSDVVIPERYSVAYFAKPNRIASLFPLKKFITPATPCKYEDITAWDYNNLRIAKLFS | – | – | – | no hydroxy-L-proline was detected | – | – | – | – | – | (No activity) | no accumulation of (4R)-hydroxy-L-proline was confirmed | 0 | 17.4 | 2.1 | a major amount of the substrate was allowed to convert to (4S)-hydroxy-L-pipecolic acid
6 | CgPH: L-pipecolic acid trans-4-hydroxylase from Colletotrichum gloeosporioides Nara qc5, GenBank ELA34460, SEQ ID NO: 12 (protein, Colletotrichum gloeosporioides) MSDKGATLDMSLFFGTPEEKGYFCTELLRLLKLRGGVKIQNHSIPDEDIHKLFDMSRKFFALPLETKMEAKHPPQANPNRGYSFIGQENVANISGYEKGLGPGKTRDIKETLDMGSAQDDLVDNLWIPEESLPGFRGFMESFYEKAFKTEMQLLSALAIALGVSEDHMKTLHNRAENEFRLLHYPAIPATELADGTATRIAEHTDFGTITMLFQDSVGGLQVEDQTQPGVFRSVESEKPTDIILNIGDSLQRLTNDTFRAACHRVTYPPAIKARDNVQIPERYSIAYFVKPNRHASLLPLKEFITDATPCRYEDVTAWEWNNRRITKLFG | – | – | – | no hydroxy-L-proline was detected | – | – | – | – | – | (No activity) | no accumulation of (4R)-hydroxy-L-proline was confirmed | 0 | 19.1 | 0.2 | a major amount of the substrate was allowed to convert to (4S)-hydroxy-L-pipecolic acid
